B1: PA01P2B05 (antibody, human IgG1, V domains shown)
VH: EVQLLESGGGLVQPGGSLRLSCVASGFTFSGHAMSWVRQAPGKGLEWVSGISGSGGSTYYADSVKGRFTISRDNSKKTVDLQMNNLRAEDTAIYYCAKDLHFDTSGYYYSMIFDYWGQGTLVPVSS
VL: QSALAQPASVSGSPGQSITISCTGTSSDISDYNYVSWYQQHPGKAPKLILYDVNNRPSGVSSRFSGSKSGDTASLTISGLQPEDEADYYCSSYTSTKIFGGGTKVTVL
B2: PA01P2B10 (antibody, V domains shown)
VH: QVQLQQWGAGLLKPSETLSLTCGVHGGSLNNYYWSWIRQPPGKGLEWIGEVYHSGSINYNPSLKSRVTMSVDTSKNQFSFNLSSVTAADTAVYYCARGAYDSRGFWTLDAFNTWGQGTMVIVSS
VL: DIQMTQSPSALSASLGDRVTITCRASESINSWLAWYQQKPGKAPKLLIYKASTLESGVPSRFSGSGSGTEFTLTISSLQPDDFATYYCHQYNRYSYTFGQGTKLDIK
notes: subject PA01; also called Clone PA01P2B10
B3: PA01P2G07 (antibody, V domains shown)
VH: QVLLVQSGSEVKNPGASIRVSCKTSGYMFTNNGIAWVREVPTQGLEWMGWISTYSGATHYAPNLHGRITMTADTSASTAYMELRSLQSGDTGVYYCARLWFGKLGLDFWGQGTQVTVSS
VL: QSVLTQPPSASGTPGQRVIISCSGSTSNIGTKTVNWYQHLPGTAPKLLIYNNNQRPSGVPDRFSGSKSGTSASLTISGLQSEDEADYYCAAWDDSLNGRGLFGPGTKVTVL
notes: subject PA01; also called Clone PA01P2G07
B4: PA01P2E05 (antibody, V domains shown)
VH: QVQLVESGGGFVKPGGSLRLSCAVSGFTFSDYYMSWVRQAPGKGLEWLSHISSDGSDTNYADSVKGRFSISRDNAKNSVFLQMNTLRVEDTAVYYCARNALTNAYDMSGFRNWGQGTLVTVSS
VL: NFMLTQPHSVSESPGKTVILSCTRSSGSIASNYVRWYQQRPGSAPTTVIYEDSRRPSSVPDRFSGSIDSSSNSASLTISGLKTEDEADYYCQSFDSSSRKVVFGGGTKLTVL
notes: subject PA01; also called Clone PA01P2E05
B5: PA01P2C09 (antibody, V domains shown)
VH: QVDLVESGGGYVKSGGSLRLSCAASGFRFSDYYMSWVRQAPGKGLEWLSHISSDSSDTNYADSVKGRFSISRDNAKNSVFLQMNTLRAEDTAVYYCARNALTNAYDMSGFRNWGQGILVTVSS
VL: NFMLTQPHSVSESPGKTVILSCTRSSGSIATNYVRWYQQRPGSAPTTVIYEDSRRPSSVPDRFSGSIDSSSNSASLTISGLRTEDEADYYCQSFDTSSRKVVFGGGTKLTVL
notes: subject PA01; also called Clone PA01P2C09
B6: PA01P3E08 (antibody, V domains shown)
VH: QVQLVQSGAEVKKPGASVKVSCKASGYTFIRYDIHWVRQATGQGLEWMGWMNPNNGKSGFAQKFEGRVTLTRNTSVTSTYMQLSSLGLEDTAVYYCVRAGYSYGWGFDYWGQGSLVTVSS
VL: NFTLTQPHSVSGSPGKTVTISCTRSSGGIASSHVQWYQQRPASAPTTLIFEDDQRSSGVPDRFSGSIDTSSNSAYLTISGLEAEDEADYYCQSYDNSMWVFGGGSKVTVL
notes: subject PA01; also called Clone PA01P3E08
B7: PA01P2B03 (antibody, V domains shown)
VH: EVQLVQSGAEVKKPGESLKISCKGSGYNFTSSWIGWVRQMPGKGLEWMGIIHPGDSDTRYSPSFQGQVTISADKSLTTAFLQWSSLKTSDTAIYYCARHGSTMLWGDAFDIWGQGTMVTVSS
VL: SYELTQPPSVSLSPGQTARITCSGDALPKHYAYWYQQKPGQAPVLVIYKDTERPSGIPERFSGSSSGTTVTLTISGVQAEDEADYYCQSSDSTGEVFGGGTKLTVL
notes: subject PA01; also called Clone PA01P2B03
B8: PA01P2D04 (antibody, human IgG1, V domains shown)
VH: QVQLLQSGPEVKQPGASVQVSCQTSGYTFTGYYIHWVRQAPGQGLEWVGWINPNRGHTNYGPAFQGRLTLTADTSSSTAYLELTRLRSDDTAVYYCARDRLTGGRDAFEIWGQGTMLIVSS
VL: DIQLTQSPSSLSASVGDRVTITCRASQSISSYLNWYQQKPGKAPKLLISVASSLQDGVPPRFSGSRSGTEFTLTISSLQPEDFAIYYCQQSYSLSWTFGQGTKVEIK
B9: PA01P2B12 (antibody, human IgG1, V domains shown)
VH: QVQLVQSGAEVKQPGASVQVACQTSGYIFTAYYIHWLRQAPGQGLEWVGWINPNRGHTNYAPGFQGRLTLTADTSSSTAYLALTRLASDDTAVYYCARDRLTGGRDAFEIWGQGTMLIVSS
VL: DIQLTQSPSSLSASVGDRVTITCRASQSVSSYLNWYQQKPGEAPKLLISAASSLQDGVPPRFSGSRSGTEFTLTISSLQPEDFAIYYCQQSYSLWWTFGQGTKVEIK
B10: PA01P2D10 (antibody, human IgG1, V domains shown)
VH: EVLLLESGGGLVHPGGTLRLSCAASGFTFRNSAMTWVRQAPGKGLEWVSSIGGSGAKSYYADSVKGRFTISRDNSKNTLYLEMNTLRVDDTAIYYCAKDQLNCYDLWSGDYCWFDTWGQGTLVTVSS
VL: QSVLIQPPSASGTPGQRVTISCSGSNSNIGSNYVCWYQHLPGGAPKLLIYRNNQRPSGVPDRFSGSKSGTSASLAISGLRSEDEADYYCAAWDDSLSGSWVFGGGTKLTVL
B11: PA01P2D09 (antibody, human IgG1, V domains shown)
VH: EVQLLESGGGLVQPGGSLRLSCAVSGLKFSSYAMSWVRQAPGKGLEWVSVVSGSSGSTFYAVSVEGRFSISRDNSNNMLYMDMHSLRVEDTAKYYCAKVVGWYYDRNGNRRPKGFRAFDVWGQGTMVIVSS
VL: QSVLTQPPSASGTPGQRITIACSGTTSNIGGNSVNWYQQFPGAAPRLLIFDYDQRPSGVPARFSGSSSGSSGYLAISGLQSEDEADYYCSSWDDNLNGWVFGGGTKLTVL
notes: also called PA1P2D09
B12: PA01P2E08 (antibody, human IgG1, V domains shown)
VH: QVQLVESGGGVVQPGRSLRLSCVASGFDLNAYGMHWVRQAPGKGLDWVAATSRGGTKKYYADSVKGRFTISRDVSKNTLYLQMGSLRTGDTAIYYCGVGMEDVFDIWGQGTMVTVSP
VL: QSVLTQPPSVSAAPGQKVTISCSENNSNIGNRNVSWYQQLPGKAPKLFIYDNNERPSGIPARFSGSKSGTSATLVITGLQTGDEADYYCGTWDRSLSVWVFGGGTKLTVL
B13: PA01P2B09 (antibody, V domains shown)
VH: QVEVVESGGGVVQPGKSLRLSCAASGFKFNVYGIHWVRQAPGKGLEWVAVVWYDGSNKYYADSVKGRFTISRDNSKNTTYLQMDSLRVDDTAVYYCARELQYSNYDYFYAMDVWGQGTTVTVSS
VL: DIQMTQSPPSLSASVGDRVTITCRASQDIDNYLVWFQQKPGRAPKSLIYAASSLQSGVPSKFSGSGSGTEFTLTISSLQPEDFATYYCQQYNSFPYTFGQGTKLEIK
notes: subject PA01; also called Clone PA01P2B09
B14: PA01P2D11 (antibody, V domains shown)
VH: QLQLQESGSGLVKPSQTLSLTCDVSGDSMNDDVYTWSWIRQPPGRGLEWIGYISHTGNTFYNSSLQSRVTMSVDTSKNQFSLKLSSVTIADTAVYYCARLTFLFSAPFSSFNWFDPWGQGILVTVSS
VL: QSVLTQPPSVSGAPGQTITISCTGTPSNFGADYDVHWYQQRPGTAPKLLIFADKHRPSGVPDRFSGSRSGTSASLAISGLQAEDEADYYCQSYDSGVVGLWVFGGGTKVTVL
notes: subject PA01; also called Clone PA01P2D11
B15: PA01P2B04 (antibody, V domains shown)
VH: QVQLQQWGAGLLKPSETLSLTCTVIGTSFSNYYWSWIRQPPGKGLQWIGEITHSDSANYNPSLKSRVIISIDSSKNQLSLNLSSVTAADTAVYYCARGSKDYYDRSTFSWFDPWGQGTLVTVSS
VL: EIVMTQSPATLSVSPGERATLSCRASQNISNKLAWYQQKPGQAPRLLIYDASTRATGVPARFSCSVSGTAFTLTINRLQSEDFAVYYCQQYYYWPPPYTFGHGTKLEIK
notes: subject PA01; also called Clone PA01P2B04
B16: PA01P1D06 (antibody, V domains shown)
VH: QVTLRESGPALVEVTQTVTLTCNFSGFSLHTRGMYVNWIRQPPGKALEWLAVINWDDDKYYTPSLKNRLTISKDTSKNQVVLTMTNMDPVDTATYYCARTDYGGYGPEGFDYWGQGTLVTVSS
VL: EIVMTQSPATLSVSPGESATLSCRASQSVRSNLAWYQQKPGQAPRLLIYGASTRAPGVPARFTGSESGREFTLTISSLQSEDFAVYYCQQYNNWPPYTFGQGTKLEIK
notes: subject PA01; also called Clone PA01P1D06
B17: PA01P2E10 (antibody, V domains shown)
VH: QVQLVQSGAEVKKPGASVKVSCKASGYTFTTYGISWVRQAPGQGLEWMGWISAYNGNTTYAQNFHARVTMTTDTSTSTAYMELRSLRSDDTAVYFCARTSARTITIFGVLIPAGLNLDYWGQGTLVTVSS
VL: QSALTQPASVSGSPGQSITISCTGTGSDVGRYNYVSWYQQHPGKAPKFMIYDVSNRPSGVSNRFSASKSGNTASLTISGLQAEDEADYYCSSYTSTSTLVFGGGTKLTVL
notes: subject PA01; also called Clone PA01P2E10
B18: PA01P2C12 (antibody, V domains shown)
VH: HVQLQESGPGLVKSSETLSLTCNVSSDSFSDHYWSWVRQPAGKGLQWLGRIYNTGTTTYNPSLNRRITMSVDTSKNQFSLRLTSVTAADTAVYYCAARHYHYDKTIWGQGTLVTVSS
VL: NFMLTQPHSVSESPGKTVTISCTRSSGSIASNYVQWYQQRPGSPPTTVIYEDNQRPSGVPDRFSGSIDSSSNSASLTISGLKPEDEADFYCQSYDSDDREVFGGGTRLTVL
notes: subject PA01; also called Clone PA01P2C12
B19: PA01P2C04 (antibody, V domains shown)
VH: QVQLQESGPGLVKPSETLSLTCSVSGGSISSHYWSWIRQPPGRGLEWIAYISYSGRTKYNPSLKSRVTISEDTSKNQFSLKLSSVTPADTAVYYCARIYGDYGPFIDYWGQGTLVTVSS
VL: DIQMTQSPSSLSASVGDRVTITCRASQTISTYLNWYQQKPGTAPMLLIYGAYSLHSGVPSRFSGSGSGTDFTLTISSLQPEDFATYYCQQSSSLPLTFGGGTKVEIK
notes: subject PA01; also called Clone PA01P2C04
B20: PA01P4C11 (antibody, V domains shown)
VH: EVQLLESGGGLLQLGGSLRLSCAASGFTFSSYVMSWVRQAPGKGLEWVSLITGSGGNTYYADSVKGRFTISRDNSKNTLFLQMNSLRVEDTAIYYCVKTDFYDSSGYYFHDAFHIWGQGTMVTVSS
VL: QTVVTQEPSLTVSPGGTVTLTCASSTGSVTSGYYPNWFQQKPGQAPRTLIYGTSNKHSWTPARFSGSLLGGKAALTLSDVQPEDEAEYYCLLYYGGAYVFGTGTKVTVL
notes: subject PA01; also called Clone PA01P4C11

The binders below were run against T1, BSA (UniProt P02769 25-607) (assay: indirect ELISA heat map, hIgG subtracted).
T1 construct: also called bovine serum albumin; immobilized BSA
T1 sequence (P02769 25-607 limits assumed): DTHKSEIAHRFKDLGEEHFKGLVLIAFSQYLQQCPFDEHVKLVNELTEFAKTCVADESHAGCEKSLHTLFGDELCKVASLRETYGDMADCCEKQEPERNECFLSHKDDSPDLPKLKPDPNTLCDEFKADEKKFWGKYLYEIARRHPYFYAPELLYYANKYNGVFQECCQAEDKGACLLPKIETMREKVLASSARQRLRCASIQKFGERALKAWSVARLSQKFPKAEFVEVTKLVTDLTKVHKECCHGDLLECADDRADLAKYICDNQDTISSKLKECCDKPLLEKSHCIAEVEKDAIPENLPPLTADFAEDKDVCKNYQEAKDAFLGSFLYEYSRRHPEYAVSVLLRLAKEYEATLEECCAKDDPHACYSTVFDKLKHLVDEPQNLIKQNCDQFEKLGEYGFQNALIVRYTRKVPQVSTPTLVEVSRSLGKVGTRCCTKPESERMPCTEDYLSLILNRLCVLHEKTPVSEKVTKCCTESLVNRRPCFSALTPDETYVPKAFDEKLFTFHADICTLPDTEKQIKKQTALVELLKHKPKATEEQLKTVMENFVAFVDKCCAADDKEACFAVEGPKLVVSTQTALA

Binding result, no binding (tested: 2 ng/µL):
B1
B2
B3
B4
B5
B6
B7
B8
B9
B10
B11
B12
B13
B14
B15
B16
B17
B18
B19
B20
